Here are results for three sequences from PMC5137447.

As usually defined, the Kd is the constant that tells how readily two partners part at equilibrium.

In series [1] the target is T1, influenza A virus RNA polymerase (RNAP; PB1-PB2-PA) (Influenza A virus A/NorthernTerritories/60/68 (H3N2)) (UniProt Q910D6+Q91MB1+P03433). Kind of series: smFRET titration.
Series [2] deals with T1, influenza A virus RNA polymerase (RNAP; PB1-PB2-PA) (Influenza A virus A/NorthernTerritories/60/68 (H3N2)). Kind of series: fluorescence anisotropy.

The sequence “AGCGAAAGCAGGAGUUU / UAAACUCCUUGUUUCUACU [cRNA promoter 5U17/3U4]” yielded a Kd in series [1] of 13 nM. AGCGAAAGCAGGAGUUU [5' cRNA] showed a Kd in series [2] of 44 nM. As to UAAACUCCUUGUUUCUACU [3' cRNA], the dissociation constant Kd in series [2] is > 1000 nM.
